Data as given in article PMC3920545 (Journal of molecular biology, 2012).

Target: human Toll-like receptor 3 ectodomain (TLR3ecd) (Homo sapiens, UniProt O15455)
Test: SPR

Kd: 0.0291 nM
koff: 0.000103 s⁻¹
kon: 3.54e+06 M⁻¹ s⁻¹
B1: Fab1068 (Fab, V domains shown)
VH: QVQLQQPGAELVQPGTSVRLSCKASGYIFTTYWIHWVKQRPGQGLEWIGEINPNNGRINYNEKFKTKATLTVDKSSSTAYMQLSSLTSEDSAVYYCTRVGVMITTFPYWGQGTLVTVSA
VL: DIQMTQSPASLSASVGETVTITCRASGNIHNYLAWYQQKQGKSPQLLVYNAKTLADGVPSRFSGSESGTQYSLKINSLQPEDFGSYYCQHFWSTPFTFGSGTKLELK
